Data reported in a protein production outcome set (Wang et al. 2014).

Test: label from the status in PepcDB records
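Further: failed if final PepcDB status was selected cloned or expressed and not failed if soluble or beyond.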

| Sequence | protein production |
| --- | --- |
| MNGSNHMKNKTLVISGATRGIGKAIFVRFAQSGVNIAFTYNKNVEEANKIIEDVEQKYSIKAKAYSLNVLEPEQYTELFKQIDADFDRVDFFISNAIIYGRSVVGGFAPFMRLKPKGLNNIYTATVLAFVVGAQEAAKRMQKIGGGAIVSLSSTGNLVYMPNYAGHGNSKNAVETMVKYAAVDLGEFNIRVNAVSGGPIDTDALKAFPDYVEIKEKVEEQSPLKRMGNPNDLAGAAYFLCDETQSGWLTGQTIVVDGGTTFK | failed |
| MNHRDKQIDSGSGSGENRRTYDCDICKRGFTNPQALGGHNNIHRRERERYPSSSSSSHSFPFSLPLPSQSPSSSTNFTNPPPYFPTIESYLHQGSQPPINPSHNTQYFGSSSSSRGGGRFAQGASHDLNLSLGLGSMNEDDDTHRSPPETGGSQPQDGDLDLDLRLGGHRHH | failed |
| MNHRLAGIISPLGHITTDPIRSSSVNPSSPVYYKTIVNHFKSQTGNHVSPGLTNQEISAVESSHGFSFPLDLRSILQTGLPVGTNFPNWRTGSNRNNLLLPLLNLSQHVVRNGFWVDSWGIRPGNDAEALSLVKKLIEIAPVLVPVYGDFYVPSTTPNLAGNPVFQIDGDGVRELSCDVVGFLKGIGRSETPTEDRRRRRRPRRVEFWSDVAEGWRFVVARDYTRDWWSALGFEGLTACLDDAFWKLREAGWTEDDVRDMMMMDSVDQNTCIQQQTQTQSRDVVYAFGDEGMNERDRDTCTEDEDHQKGEVTTLRHLLLYDRLMS | failed |
| MNHWSMPPNPEKALMLAQRAVAVFVYDAVRLEGINFTLPEVQTLLQGVTVGGHRLSDQQIAVNQGEAWKLLFQMIRDGRFELTPDCAMALHGVAAKEEALEWGCFRSGSVLIAGTEYEPPAASELPTRFDRMIDELQHMDDVHDQAVHLFLTMARCQFFYDVNKRMGRFMMNGHLLSNGYPAINIPASSQLEFNELMLRFYDSGDQREMNAFVRSCMDERVVLIMKEELEHHHHHH | failed |
| MNIFIAGLNYNMSEAELGELFAEYGEVVSVKIIMDRETGRSKGYGFVEMADDEAGDKAIAALNEVDMDGKTLSVSVARPREERPRRSYGNNGGGGYRGGNNSRGGGYGGSRGDNGYGGGRNRY | failed |
| MNIGRHLLLVLFGWLPVRLGFAADAISVVDKQPVNWVAITMFAVFVLITLWITQWAAKKTRSSADFYTAGGTVTGFQNGLAIAGDYVSAASFLGITSAVMANGYDGMLYAIGFLVGWPILTFLIAERLRNLGKYTFADVVAYRFAATSVRLFASVSTLVVVLCYLIAQMVGAGALIRLLFGLDYWVAMVLVGGLMMVYVLFGGMAATTWVQIIKAVLLLIGATFMAVMIMRRFGFNFEGLFASAVEVKTQIAMAGGKSGEEAKALGLSIMAPGSFIKDPISAISLGIALVFGTAGLPHILMRFFTVPDARQARHSVLWAITWIGYCYILMFIIGFGAIVLVLANPQYADIASGTIRGGQGAANMAAVLVAKVVGGNVFMGFVSAVAFATILAVVAGLALSGASAVSHDVYAMVIKQGKPSSDTELLVSRVTTAVLGVVAVLLGIVFQKQNVAFMVSLAFAIAASANFPVLVLSLFWKNCTTRGAVIGGFLGLISSLVLTVLSPSVWVDTLGHSVDSVRFPYTSPALFSMTIGFVGIWLFSVLDRSGRAAKERVAFKAQQVRAETGLGASKMSPN | failed |
| MNIKLKRTLISLVAFSMTCLPFVGTGSSVKAASNDATINVAAKHQTIRGFGASSAWCGALSDTCMDTLYKNAGLDILRVRIAPNEGWNRGDYRAWADELSNAKKVRARGGIVFATPWTPPASMKTNNTTTGANKGSLKPSSYAAYAAYLKTFVKYMSDNGAPLYALSLQNEPDWAPDYDACTWTAQQFHDFLKQYGASLSSTIKIIMPESLGFNPAMSDPTLNDPTTAQYVSIIGGHLYGSPIRDYPLARNKGKDIWMTEHYLEGNDPGTCVKLAKEIHDCMTIGNMNAYVYWWISGDQNGLYNTRTNETYKKTYVMGQFSKFIGNGYSRVDATNSPQSNVYVSAYTGNNKVVIVAINQGTYPVNQSFNVQNSTVSNVSSWVSSGTLNMAKTNSNISAANGRFNASLPAQSVTTFVADLNSTNPTTDPTTNPTPGSTVTLNNGWYYIKNINAQKYLQVASNTGKAGQNVELGSGSGAAGQKWYLTNTGDGYVTLKSALGNYMLDVSYGENKDGSNIQIFNAYSGDAQKFSVKASSKDGQYFVSTKSSNGTKVLDDYNFGTADGTNVCQWTYGGNANQLWAFEPTNN | failed |
| MNIKSAFIRKRGEKFYVYVEYIEETTGKIKQKSYGSYEKKKDAEKHLIEIKSTINNNKFVAPKDITFVERCYKYIDMNKNNWSPYTVTSTKSWVKNYIEPFFKNLKLTEVNPSSVQAFVNYNFNNSTFTSAKVRYSFLSSVIREAYRLREIQENSCDFIKLPSKEKYSTNEIYNREEVLLLIEKLLGNNIEIPILLMLLLGLRMGEATGLRWSDVDLDNNLINVNQILVYSNGKISFKEPKTPKSKRALSAPKELIEKLKIEKLRQSKLKLQGILENKNNLVCLNTNLNPFLPSSLRKTFHNFTKKNNLKKIRIHDLRHTSATLLLLGGTNMKVVSERLGHTDIKITMNRYSHVLKEMDKEASDNLSELLFK | failed |
| MNILTLMETFSAVVEAGSFTGAAEKLGLSKSFVSKQVSTLEVELGCRLLYRTTRTLSLSDEGSQFYNHCKIIMAEAENARAEVMDRQGAPRGKIRMTIPQSLIISGFGQLLIDFQLQYPEIKLEVIASGRIEDLVKEGIDIALRVGQLEDSSLISRRLMDCTFQVVASSDYIKKWGEPFQPADLMQHNCLIYGDSKINKGWPFRSPSGESITVKAKGNFISNDGGLVVEGMLNGLGIGFGPSFLFNEHVEKGRLKLLLSDYYQPPTAISALYPLNRNLSRRIRLLIDYLSERLSV | not failed |
| MNINEKAIEMFEQNKYEEAMELFQQAVHKSRDVQSLNNLAWMYFYEEENDEKALELIREVVKLNPSSYFPYNILGEIYIKQKKWEEAKEVLQKSISIQPSDEAYHNVAVAHYNLGELEKASDFFLRVAGDSDYIMYSYVKCLIDLERTTEAKEKLDTFNRESDNFLGEINVADLYVELNCYKEAIEWFEKGYKECWKSPNWIGRFVYALYKTNNFSRINEVIRECIEAKTAEIEDVQNEEVEENWTENDKKELIEEYTEENNCYKTMVERIKSGYVPGLEFETDYIGACYLFGCKRHNHLEYEK | failed |
| MNINLSVPYAAEGPGPTINTLGQVDGEDVVSISSADLDETEGNLNMTTVSVRSGMTLSQVISRWLFTDDTIVPIEQVFPPGQSTEEVEESNRTAFISSESSATIAAMNYLNIPVEVEVAEVLTDSAATGIFEPGDKLLSIDGTAISTPGDAQTIVRSKAPGDEITISYERNDAESQATITLREHPDDSSVALLGISMLSVPSSAIEVDYNLEDIGGPSAGMMFSLAVVDKLSPGALNGGKFVAGTGTIAEDGSVGPIGGIAHKVRAAEDAGAEVFLSPADNCAEAMSAKPQDMTILKVDSLSQAIDQMAAYNEGLEHHHHHH | not failed |
| MNISEMDSFDVTGFVIRTTNADEVSPSTAKIGELWARFYANAAPKLNEKSKVFGLYTNYGSDFTGAFDVIACSDTLSPEILPDSVKVTVAPGKYVTFSATGEMPQVVIELWGDVWRYFGSESCPYKRAYTTDFEYYKSASEVEISIAIK | failed |
| MNISIFKEKSLKWQLLRRMFLLLICFLIILEIFQYFFLRHYICKDKEMLLESRINNVAHLMTTIDSEASLKKNSGYLIKKSLYFDTTSSVIDKNGNVLLFHIKDKHPTSPPIISASEYKAIMKREGNLEGYTITKNKCGEPQITIWRKIGNLNSPLGLIQLTTPYHSAAQFLYKQIYIYIVACVLILILSILIGGTLIKHTLKPLYRIAHTLNNLTVGDLNKRLSENNNQVEIDHLATAFNNMFSRIEISFNREKELKKKMQQFISDASHELRTPLTSIRGFVEVLLIGSYKDEKKLKLALNTILIESERLTELVNNLLTLTRLDRSTHTEMTKQNMSDIIEEIYPQLKILAKNRQVNLNLYDNNAYFLGNKNQIKQVIFNIVQNSINYTDKETGIITLSLSIEDTLFILKISDNGIGIASKDLPHIFDRFFRSETHRSRESGGYGLGLSIAKSIIQSHGGEISTKSIINQGTSFYIKLKRI | failed |
| MNISPKAIKVRNIWIGGTEPCICAPVVGEDDRKVLREAEEVCRKQPDLLEWRADFFRAIDDQERVLATANGLRNIAGEIPILFTIRSEREGGQPIPLNEAEVRRLIEAICRSGAIDLVDYELAYGERIADVRRMTEECSVWLVVSRHYFDGTPRKETLLADMRQAERYGADIAKVAVMPKSPEDVLVLLQATEEARRELAIPLITMAMGGLGAITRLAGWLFGSAVTFAVGNQSSAPGQIPIDDVRTVLSILQTYSR | not failed |
